Assay results reported in CN105542009A (UNIV NANCHANG, dated 2016).

Experiments:
[1] = target: T1, 前列腺特异性膜抗原 (PSMA) on LNCaP cells (UniProt Q04609 1-750, limits assumed); experiment: cell ELISA on fixed LNCaP (PSMA+) against MKN45 (PSMA-) cells, HRP-anti-M13 detection
T1 construct: whole, on cells; Endogenous PSMA on LNCaP cells; MKN45 cells (no PSMA) served as negative cells; also called prostate specific membrane antigen

[2] = target: T2, PSMA胞外区蛋白 (重组表达的前列腺特异性膜抗原膜外区) (UniProt Q04609 44-750); experiment: indirect phage-ELISA, PSMA extracellular region coated at 5 μg/mL, HRP-anti-M13 detection
T2 construct: extracellular domain; also called PSMA蛋白; PSMA抗原; not shown: His tag from vector pRAG2a (purified by HisTrap, detected by anti-His antibody)
T2 sequence (Q04609 44-750): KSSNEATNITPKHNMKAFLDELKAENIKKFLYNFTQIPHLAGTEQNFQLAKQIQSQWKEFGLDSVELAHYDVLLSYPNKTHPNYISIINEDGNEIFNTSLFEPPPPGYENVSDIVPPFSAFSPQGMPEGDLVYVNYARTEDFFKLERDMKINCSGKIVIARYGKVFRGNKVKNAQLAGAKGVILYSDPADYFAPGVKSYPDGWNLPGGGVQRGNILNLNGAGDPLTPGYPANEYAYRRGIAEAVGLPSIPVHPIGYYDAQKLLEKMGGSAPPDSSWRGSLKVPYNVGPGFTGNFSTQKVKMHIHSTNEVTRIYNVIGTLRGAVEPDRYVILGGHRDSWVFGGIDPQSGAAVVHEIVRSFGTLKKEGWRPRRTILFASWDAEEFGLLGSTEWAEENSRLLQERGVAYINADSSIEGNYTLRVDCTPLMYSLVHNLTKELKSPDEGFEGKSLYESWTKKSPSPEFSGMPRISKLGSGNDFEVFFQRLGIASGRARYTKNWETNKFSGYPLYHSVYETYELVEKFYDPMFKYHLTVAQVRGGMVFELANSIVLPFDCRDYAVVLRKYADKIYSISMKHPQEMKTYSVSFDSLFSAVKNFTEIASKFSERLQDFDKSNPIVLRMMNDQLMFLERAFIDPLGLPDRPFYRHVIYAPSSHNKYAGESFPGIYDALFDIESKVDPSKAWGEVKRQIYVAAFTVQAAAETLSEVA

T1 sequence (Q04609 whole entry): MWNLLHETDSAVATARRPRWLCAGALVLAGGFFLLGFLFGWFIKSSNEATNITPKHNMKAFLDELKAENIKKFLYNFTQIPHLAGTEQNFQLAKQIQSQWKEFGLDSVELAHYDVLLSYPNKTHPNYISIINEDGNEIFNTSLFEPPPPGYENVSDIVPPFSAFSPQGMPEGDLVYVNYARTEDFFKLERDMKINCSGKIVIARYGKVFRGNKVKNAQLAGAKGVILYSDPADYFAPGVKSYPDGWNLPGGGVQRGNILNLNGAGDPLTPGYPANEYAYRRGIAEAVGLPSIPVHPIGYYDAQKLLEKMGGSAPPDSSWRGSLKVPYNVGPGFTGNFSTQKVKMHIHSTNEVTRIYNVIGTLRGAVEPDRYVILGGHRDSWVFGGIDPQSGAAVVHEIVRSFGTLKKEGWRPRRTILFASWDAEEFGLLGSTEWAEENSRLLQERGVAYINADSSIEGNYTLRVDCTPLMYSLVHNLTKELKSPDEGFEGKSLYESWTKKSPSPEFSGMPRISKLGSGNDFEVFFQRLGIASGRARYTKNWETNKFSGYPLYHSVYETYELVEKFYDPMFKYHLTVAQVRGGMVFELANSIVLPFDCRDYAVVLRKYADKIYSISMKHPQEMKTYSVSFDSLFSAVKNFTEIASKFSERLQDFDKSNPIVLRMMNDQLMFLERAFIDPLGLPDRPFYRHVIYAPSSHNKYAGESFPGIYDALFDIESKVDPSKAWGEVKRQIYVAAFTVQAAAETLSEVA

B1: 抗前列腺特异性膜抗原单域重链抗体噬菌体阳性克隆 (VHH)
VHH: QVQLVESGGGLVQAGGSLRLSCAASGRTFSRRDMGWFRQAPGKEREFVASISRSSAYTNYADSVKDRFTISRDNAKNTVYLQMYNLKPEDTAVYYCAAANYSTTRASAYRYWGQGTQVTVSS
notes: also called 针对前列腺特异性膜抗原的单域重链抗体阳性克隆; 展示本发明所述纳米抗体的噬菌体克隆; not shown: the phage coat protein fusion and any linker or tag are not described
binding result [1]: binds | binding result [2]: binds
